Measurements taken from patent publication US20140088008A1 (Amgen, published 2014).

T1: GDF-11 (UniProt O95390 299-407)
T1 sequence (looked up): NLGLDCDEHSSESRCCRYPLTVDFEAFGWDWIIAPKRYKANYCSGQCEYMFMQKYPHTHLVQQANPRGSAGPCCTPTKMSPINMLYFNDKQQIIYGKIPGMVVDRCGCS

T2: activin A (UniProt P08476 311-426)
T2 sequence (looked up): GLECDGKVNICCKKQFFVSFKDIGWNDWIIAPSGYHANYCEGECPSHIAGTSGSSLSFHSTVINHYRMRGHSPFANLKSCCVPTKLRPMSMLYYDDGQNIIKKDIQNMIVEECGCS

T3: myostatin (UniProt O14793 267-375, limits assumed)
T3 sequence (looked up): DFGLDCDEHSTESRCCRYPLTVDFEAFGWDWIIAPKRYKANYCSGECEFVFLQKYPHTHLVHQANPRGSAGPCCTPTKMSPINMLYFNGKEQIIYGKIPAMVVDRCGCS

B1: huActRIIB5/Fc (Fc fusion)
chain: SGRGEAETRECIYYNANWELERTNQSGLERCEGEQDKRLHCYASWRNSSGTIELVKKGCWLDDFNCYDRQECVATEENPQVYFCCCEGNFCNERFTHLPEAGGPEGPWASTTIPSGGPEATAAAGDQGSGALWLCLEGPAHEGGGGGGGG
notes: also called human activin type IIB5 receptor Fc fusion; not shown: human IgG1 Fc
B2: huActRIIB-ECD/Fc (Fc fusion)
chain: SGRGEAETRECIYYNANWELERTNQSGLERCEGEQDKRLHCYASWRNSSGTIELVKKGCWLDDFNCYDRQECVATEENPQVYFCCCEGNFCNERFTHLPEAGGPEV
notes: not shown: human IgG1 Fc, fused directly (no linker)

Columns and labels:
GDF-11 = target: T1, GDF-11; assay: cell-based or functional assay
activin A = target: T2, activin A; assay: cell-based or functional assay
myostatin [1] = target: T3, myostatin; assay: cell-based or functional assay
myostatin [2] = target: T3, myostatin; assay: BIAcore solution competition: soluble receptor titrated against 4 nM myostatin, free myostatin captured on immobilized human ActRIIB-ECD/Fc (R&D Systems) on a CM5 chip
Description: Blocking assays were carried out using immobilized human ActRIIB-ECD/Fc (R&D Systems, Minneapolis, Mn.) on a CM5 chip (Biacore, Inc., Piscataway, N.J.) in the presence and absence of each of the two soluble receptors ActRIIB-ECD/Fc and ActRIIB5/Fc using the BIAcore® assay system according to the manufacturer's instructions.
100% myostatin binding signal was determined in the absence of receptor in solution. Various concentrations of the soluble receptors were diluted in sample buffer and incubated with 4 nM myostatin before being injected over the receptor surface. Since only free myostatin molecules were able to bind to the chip, a decreased binding response with increasing concentration of the receptors indicated binding of the receptors to myostatin in solution. Plotting the binding signal vs. concentration of soluble receptor, ActRIIB-ECD/Fc and ActRIIB5/Fc were calculated to have an EC₅₀ of approximately 18 nM and 7 nM respectively.

Row | Binder | GDF-11-neutralizing activity IC50 (nM) vs. 4 nM GDF-11; pMARE-luc C2C12 luciferase reporter (GDF-11) | activin A neutralizing activity IC50 (nM) vs. 20 nM activin; pMARE-luc C2C12 luciferase reporter (activin A) | myostatin-neutralizing activity IC50 (nM) vs. 4 nM myostatin; pMARE-luc C2C12 luciferase reporter (myostatin [1]) | EC50 (myostatin [2])
1 | B1 | 90.6 nM | 156 nM | 29.7 nM | ~0.007 µM
2 | B2 | 89.9 nM | 340 nM | 51.1 nM | ~0.018 µM
